Assay: yeast display, Sf9 membrane polyspecificity reagent, FACS + sequencing; frameworks hold sequencing errors
Method in brief: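 Using colony PCR, genes from sorted yeast display clones were amplified, then sequenced on MiSeq at 2 × 250 and filtered by CDR length. The clones had been stained with 10% biotinylated, detergent-solubilized Sf9 membrane reagent for 1 hour at 4 °C and sorted by FACS into low and high (top ~1%) gates on anti-HA and streptavidin fluorescence. Polyreactivity labels come from the gate of origin.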

| Sequence | polyreactivity (PSR sort gate) |
| --- | --- |
| QVQLVESGGGLVQAGGSLRLSCAASGGTFGFNAMGWYRPAPGKERELVAAISSSGGRTYYADSVNGRFTISRDNAKNNVYLQMMSLKEEDTAVYYCAARVQVGGRSYVGYYYWGKGTQVTVSS | high polyreactivity |
| QVQLVESGGGLVQAGGSLRLSCAASGGTFGFYAMGWYRQAPGKERELVAAISWSGVGTYYADSVKGRFTISRDNAKNTVYLQMNSLKPEATAVYYCAAKQYTQKISSPGTILRYYYWGQGTQVTVSS | high polyreactivity |
| QVQLVESGGGLVQAGGSLRLSCAASGGTFGSNAMGWYRQAPGKERELVARISGRGGRTYYADSVKGRFTISRDNAKNTVYLQMNSLKPEDTAVYYCAATYIIWGQGTQVNVSS | high polyreactivity |
| QVQLVESGGGLVQAGGSLRLSCAASGGTFGSNTMGWYRQAPGKERELVAAITSGVSTNYADSVKGRFTISRDNAKNTVYLQMNSLKPEDTAVYYCAKDLWSEEYETIITSYGFDYWGQGTQVTVSS | low polyreactivity |
| QVQLVESGGGLVQAGGSLRLSCAASGGTFGSYAMGWYRQAPGKERELVAGITGSGGITKYADSVKGRFTISRDNAKNTVYLQMNSLKPEDTAVYYCNADYSVWYIRLSAYFTYDYWGQGTQVTVSS | high polyreactivity |
| QVQLVESGGGLVQAGGSLRLSCAASGGTFGYYAMGWYIQAPGTERELVAAISWSGGSTYYADSVKGRFTISRDNAKNTVYLQMNSLKAEDTAVYYCNAVTRFGYVKFDYWGQGTQVTVSS | high polyreactivity |
| QVQLVESGGGLVQAGGSLRLSCAASGGTFGYYTMGWYRPAPGKERELVSAISSGGGTDYADSVKGRFTISRDNAKNTVYLQMNSLKPEDTAVYYCNAKWLEWHYVFLPSYTMDYWGQGTQVTVSS | low polyreactivity |
| QVQLVESGGGLVQAGGSLRLSCAASGGTFIRYAMGWYRQAPGKERELVAAISSSGGSTYYADSVKGRFTISRDNAKNTVYLQMNSLKPEDTAVYYCNGRQSRFKYDYWGQGTQVTVSS | high polyreactivity |
| QVQLVESGGGLVQAGGSLRLSCAASGGTFISYAMGWYRQAPGKERELVAAISRGGSSTYYADSVKGRFTISRDNAKNTVYLQMNSLKPEDTAVYYCNKAYHRRDSEFGYWGQGTQVTVSS | high polyreactivity |
| QVQLVESGGGLVQAGGSLRLSCAASGGTFKYYTMGWYRQAPGKERELVAAISSGGITYYADSVKGRFTISRDNAKNTVYLQMNSLKPEDTAVYYCNVVSYYIAGGWYEGDYWGQGTQVTVSS | low polyreactivity |
| QVQLVESGGGLVQAGGSLRLSCAASGGTFLGNAMGWYRQAPGKERELVADITSGGSTNYADSVKGRFTISRDNAKNTVYLQMNSLKPEDTAVDYCNAEYSTSTVWEYDYWGQGTQVTVSS | low polyreactivity |
| QVQLVESGGGLVQAGGSLRLSCAASGGTFLPNAMGWYRQAPWKERELVAAITSGGRTNYADSVKGRFTISRDNAKNTVYFQMNSLKPEDTAVYYCAARVRGYPTRPIPYYYWGQGTQVTVSS | high polyreactivity |
| QVQLVESGGGLVQAGGSLRLSCAASGGTFNHYAMGWYRQAPGKERELVSSITNGASTYYADSVKGRFTISRDNAKNTVYLQMNSLKPEDTAVYYCAARTAVGPIRSYWYDYWGQGTQVTVSS | low polyreactivity |
| QVQLVESGGGLVQAGGSLRLSCAASGGTFNRYAMGWYRQAPGKERELVAAISNGGGRTYYADSVKGRFTISRDNAKNTVYLQMNSLKPEDTAVYYCAKDLTRTSYRSAFDYWGQGTQVTVSS | high polyreactivity |
| QVQLVESGGGLVQAGGSLRLSCAASGGTFNSNAMGWYRQAPGKEREFVAAISSSGGSTYYADSVKGRFTISRDNAKNTVYLQMNSLKPEDTAVYYCAKRYPYPNGRFRFGYWGQGTQVTVSS | high polyreactivity |
| QVQLVESGGGLVQAGGSLRLSCAASGGTFNSNAMGWYRQAPGKERELVAGITSGSDTSYADSVKGRFTISRDNAKNTVYLQMNSLKPEDSAVYYCATRDYPLYGYWGQGTQVTVSS | low polyreactivity |

| Sequence | polyreactivity (PSR sort gate) |
| --- | --- |
| QVQLVESGGGLVQAGGSLRLSCAASGGTFPTNAMGWYRQATGKERELVAAITSSGVRTYYADSVKGRFTISRDNAKNTVYLQLNSLKPEDTAVYYCKAVTRYVRLTDDDYWGQGTQVTVSS | high polyreactivity |
| QVQLVESGGGLVQAGGSLRLSCAASGGTFPYYAMGWYRQAPGKERELVADISGTDGSTYYADSVKGRFTISRDNAKNTVYLQMNSLKPEDTAVYYCAAEEVSWNGTGDYWGQGTQVTVSS | high polyreactivity |
| QVQLVESGGGLVQAGGSLRLSCAASGGTFQINAMGWYIQAPGKERELVAAISRSGGSTSYADSVKGRFTISRDNAKNTVYLQMNSLKPQDTAVYYCNKRVRATAWYDYWGQGTQVTVSS | high polyreactivity |
| QVQLVESGGGLVQAGGSLRLSCAASGGTFRAYVMGWYRQAPGKERELVAAISRSGTRTYYADSVKGRFTISRDNAKNTVYLQMNSLKPEDTAVYYCAAQAGVYYDYEYWGQGTLVTVSS | high polyreactivity |
| QVQLVESGGGLVQAGGSLRLSCAASGGTFRKYTMGWYRQAPGKERELVAAISSTGSSTYYADSVKGRFTISRDNAKNTVYLQMNSLKPEDTAVYYCAADVFSGYYWPVLEDHWGQGTQVTVSS | high polyreactivity |
| QVQLVESGGGLVQAGGSLRLSCAASGGTFRNNAMGWYIQAPGKERELVAAISSSGTSTYYADSVKGRFTISRDNAKNTVYLQMNSLKPEDTAVYYCNADALGSPWWDHMDYWGQGTQVTVSS | low polyreactivity |
| QVQLVESGGGLVQAGGSLRLSCAASGGTFRRYAMGWYRQAPGKERELVAAISWTGGSTYYADSVKGRFTISRDNAKNTVYLQMNSLKPEDTGVYYCAAVGSSSSKGGYWGQGTQVTVSS | high polyreactivity |
| QVQLVESGGGLVQAGGSLRLSCAASGGTFRTYTMGWYRQAPGRVRELVAGISSRGGSTYYADSVKGRFTISRDNAKKTLYLQMNSLKPEDTAVYNCAVRHLNKRRDDYWGQGTQVTVSS | high polyreactivity |
| QVQLVESGGGLVQAGGSLRLSCAASGGTFRTYVMGWYRQAPGKERELVAAISVSGGRTYYADSVKGRFTISRDNAKTTVYLQMNSLKPEDTAVYYCAAYWHGFFKYWEMGYWGQGTQVTVSS | high polyreactivity |
| QVQLVESGGGLVQAGGSLRLSCAASGGTFRVYAMGWYRQAPGKERELFAAISSGGSTNYADSVKGRFTISRDNAKNTVYLQMNSLKPEDTAVYYCNAKYRYRFARSPIYYYWGQGTQVTVSS | high polyreactivity |
| QVQLVESGGGLVQAGGSLRLSCAASGGTFRVYAMGWYRQAPGKERELVAAITGRGGSTYYADSVKGRFTISLDNAKNTVDLQMNSLKPEDTAVYYCAKDPVTTYYKYDYWGQGTQVTVSS | low polyreactivity |
| QVQLVESGGGLVQAGGSLRLSCAASGGTFRYNAMGWYRQAPGKERELVAAIRWSGGRTYYADSVKGRFTISRDNAKNTVFLQINSLKPEDTAVYYCAALYRGYAVAASYYLWGLGTQVTVSS | high polyreactivity |
| QVQLVESGGGLVQAGGSLRLSCAASGGTFRYYAMAWYRQAPGKERELVARIRYNGGSTYYADSVKGRFTISRDNAQYTVYLQMNSLKPEDTAVYYCAGRRTGGMGYWGQGTQVTVSS | high polyreactivity |
| QVQLVESGGGLVQAGGSLRLSCAASGGTFRYYAMGWYRQAPGKERELVATINWSGGSTYADSVKGRFTISRDNAKNTVYLQMNSLKPEDTAVYYCNAGWWIPVYYWDEWYIYNYWGQGTQVTVSS | high polyreactivity |
| QVQLVESGGGLVQAGGSLRLSCAASGGTFSKNAMGWYRQAPGKEREFVAAISSTGGDTTYYADSVKGRFTISRDNAKNTVYLQMNSLKPEDTAVYYCNADYIFWPWYDYWGQGTQVTVSS | low polyreactivity |

From the nanobody polyreactivity screen of Harvey et al. (2022)
